Results on 1 substance are retold here after article PMC11169542, “A probe for NIR-II imaging and multimodal analysis of early Alzheimer’s disease by targeting CTGF” (Nature Communications, 2024).

Ends that are not written are not given here.

The test concerns the target T1, CTGF (Mus musculus, UniProt P29268).
T1 construct: brain sections of the age-matched wild-type C57BL/6J mice were used as controls; from tissue; host or cells: brain of APP/PS1 transgenic and wild-type C57BL/6J mice (sections, living animal, perfused isolated brain)
T1 sequence (P29268 26-348): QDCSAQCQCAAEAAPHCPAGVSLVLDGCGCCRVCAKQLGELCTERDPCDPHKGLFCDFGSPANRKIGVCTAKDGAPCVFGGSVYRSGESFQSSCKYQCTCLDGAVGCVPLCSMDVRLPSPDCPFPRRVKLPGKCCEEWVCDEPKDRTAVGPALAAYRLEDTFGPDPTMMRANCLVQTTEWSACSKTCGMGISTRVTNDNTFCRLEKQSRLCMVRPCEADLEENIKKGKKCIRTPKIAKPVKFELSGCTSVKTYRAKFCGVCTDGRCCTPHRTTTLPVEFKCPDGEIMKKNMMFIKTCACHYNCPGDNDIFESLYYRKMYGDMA
The test can be described thus: DGC fluorescence labelling of AD mouse brain sections in vitro. Also noted: species or system APP/PS1 and wild-type C57BL/6J mice. The note with it: 200 μM DGC 4 °C overnight. From the text:
To evaluate the expression of CTGF in the brain of AD mice and the efficacy of DGC in vitro, brain sections of APP/PS1 transgenic mice (derived from C57BL/6J) from 1-month to 9-month-old (1-, 2-, 3-, 6- and 9-month-old, female, n = 3) were used as AD model, and brain sections of the age-matched wild-type C57BL/6J mice were used as controls (female, n = 3). The brain sections were subjected to CTGF antibody immunofluorescence staining and DGC fluorescence imaging. The brains were collected and fixed with 4% PFA. The embedded brain was then sectioned using a microtome into 5-μm thick consecutive sections. The brain sections were immersed in Tris-EDTA buffer (pH = 9.0) at 95 °C for 15 min. The brain sections were then incubated with 3% bovine serum albumin for 1.5 h. Then, the brain sections were stained overnight at 4 °C with an anti-CTGF primary antibody (dilution 1:50, Abcam, Cat#ab6992). After restoring room temperature, they were washed with TBST (pH = 7.4, 3 × 5 min) and incubated with FITC-labeled Goat Anti-Rabbit IgG (h +L) (1: dilution 1:200, Bioss, Cat#bs-0370R-FITC) for 1 h. The brain sections were washed with TBST (pH = 7.4, 3 × 5 min). Finally, overnight staining with DGC (200 μM) at 4 °C and fluorescence imaging were obtained by the CLSM system.
Brain sections from female APP/PS1 double transgenic mice were used as AD models, and brain sections of the age-matched female wild-type C57BL/6J mice were used as controls to evaluate the availability of DGC in vitro. Three-month-old APP/PS1 mice (early-stage, unestablished Aβ plaques) and 9-month-old APP/PS1 mice (late-stage, established Aβ plaques) were chosen for comparison. All mice were purchased from Beijing HFK Bioscience Co., Ltd and handled in accordance with the Ethics Committee of Beijing University of Technology, China. To avoid the interference of strong background fluorescence signals of blood in cerebral microvessels, the blood vessels were emptied by cardiac perfusion with saline and PFA before dissociating the brain. After the completion of perfusion, the brain was collected and fixed with PFA for a longer time ex vivo. The embedded brain was then sectioned using a microtome into 5-μm thick continuous sections. The brain sections were labeled with DGC or CTGF, GFAP, and Aβ antibodies. Deparaffinization was performed first and antigen retrieval was implemented with immersion of the brain sections into Tris-EDTA buffer (pH = 9.0) at 95 °C for 15 min. Then, the brain sections were incubated with 3% bovine serum albumin for 1.5 h.
For fluorescence imaging of CTGF, the brain sections were stained with anti-CTGF primary antibody (dilution 1:50, Abcam, Cat#ab6992), anti-glial fibrillary acidic protein (GFAP) primary antibody (diluted 1:400, Proteintech, Cat#16825-1-AP) or anti-Aβ 17-24 (4G8, diluted 1:1000, BioLegend, Cat#SIG-39200) at 4 °C for 4 h. After they were washed by TBST (pH = 7.4, 3 × 5 min) at room temperature, the brain sections were incubated with the secondary antibody (FITC-labeled Goat Anti-Rabbit IgG (H + L) (1: dilution 1:200, Bioss, Cat#bs-0370R-FITC) for 1 h. After the brain sections were washed by TBST (pH = 7.4, 3 × 5 min). Finally, the brain sections were co-stained by DGC (200 μM) at 4 °C overnight, and the staining results were acquired on the CLSM system.

As to “DGC: CTGF-targeting peptide-coated gold nanocluster: one Au26 gold nanocluster coated by eight DAG cyclic peptides, NIR-II and red fluorescence (CDAGRKQKC; also: cyclic peptide, ring not given here, eight peptides on one Au26 nanocluster via Cys Au-S bonds)”, the “FL intensity of DGC on brain section” value by setting is: (3-month-old APP/PS1 mouse brain section, section 1) 0.02124; (3-month-old APP/PS1 mouse brain section, section 2) 0.02275; (3-month-old APP/PS1 mouse brain section, section 3) 0.01511; (9-month-old APP/PS1 mouse brain section, section 1) 0.0369; (9-month-old APP/PS1 mouse brain section, section 2) 0.0329; (9-month-old APP/PS1 mouse brain section, section 3) 0.0406. Also, the “FL intensity of DGC on brain section” value by setting is: (WT mouse brain section, section 1) 0.00435; (WT mouse brain section, section 2) 0.0071; (WT mouse brain section, section 3) 0.0055.
